Reference: patent publication US20230416330A1, “Optimized GIP Peptide Analogues” (Antag Therapeutics ApS, priority 2019, published 2023)
Starred links: 1 amine or outer side, 2 acyl side, 3 side chain; linkers in the order of their positions; H or OH if unused. Non-standard residues stand in square brackets, D forms with d. Groups on a side chain read outwards from the residue. No end group written: not given here. *: point of attachment. C18 diacid = O=C(O)CCCCCCCCCCCCCCCCC(=O)*; C16 diacid = O=C(O)CCCCCCCCCCCCCCC(=O)*; γGlu = O=C(O)[C@H](CCC(=O)[*:2])N[*:1]; Glutaryl = O=C(CCCC(=O)[*:2])[*:1]; Nle = CCCC[C@H](N)C(=O)O; AEEA = NCCOCCOCC(=O)O; Aib = CC(C)(N)C(=O)O

Target: T1, human GIP receptor (human, UniProt P48546 22-466)
T1 sequence (looked up): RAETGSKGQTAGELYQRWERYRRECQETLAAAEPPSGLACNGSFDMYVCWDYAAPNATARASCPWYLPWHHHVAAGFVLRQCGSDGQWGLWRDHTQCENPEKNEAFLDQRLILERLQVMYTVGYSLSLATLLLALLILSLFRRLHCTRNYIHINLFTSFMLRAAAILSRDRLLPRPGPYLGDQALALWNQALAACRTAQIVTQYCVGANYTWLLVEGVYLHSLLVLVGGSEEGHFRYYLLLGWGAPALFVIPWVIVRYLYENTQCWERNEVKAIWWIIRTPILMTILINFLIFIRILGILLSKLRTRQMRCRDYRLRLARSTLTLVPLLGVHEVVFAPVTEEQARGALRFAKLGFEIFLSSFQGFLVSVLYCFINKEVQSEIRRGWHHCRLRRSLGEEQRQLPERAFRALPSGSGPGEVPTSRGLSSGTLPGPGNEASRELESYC
Experiment: cell-based or functional assay

Binder | cAMP antagonism % inhib (CisBio assay) [%] | cAMP antagonism nM (IC50, CisBio assay) [nM] | cAMP antagonism pIC50 (CisBio assay)
EGTFISDYSIALDKIK([AEEA-AEEA-γGlu-C18 diacid])QQDFVEWLLAQKPSSGAPPPS-OH (N-terminus assumed; SMILES CC[C@H](C)[C@H](NC(=O)[C@H](CO)NC(=O)[C@H](Cc1ccc(O)cc1)NC(=O)[C@H](CC(=O)O)NC(=O)[C@H](CO)NC(=O)[C@@H](NC(=O)[C@H](Cc1ccccc1)NC(=O)[C@@H](NC(=O)CNC(=O)[C@@H](N)CCC(=O)O)[C@@H](C)O)[C@@H](C)CC)C(=O)N[C@@H](C)C(=O)N[C@@H](CC(C)C)C(=O)N[C@@H](CC(=O)O)C(=O)N[C@@H](CCCCN)C(=O)N[C@H](C(=O)N[C@@H](CCCCNC(=O)COCCOCCNC(=O)COCCOCCNC(=O)CC[C@H](NC(=O)CCCCCCCCCCCCCCCCC(=O)O)C(=O)O)C(=O)N[C@@H](CCC(N)=O)C(=O)N[C@@H](CCC(N)=O)C(=O)N[C@@H](CC(=O)O)C(=O)N[C@@H](Cc1ccccc1)C(=O)N[C@H](C(=O)N[C@@H](CCC(=O)O)C(=O)N[C@@H](Cc1c[nH]c2ccccc12)C(=O)N[C@@H](CC(C)C)C(=O)N[C@@H](CC(C)C)C(=O)N[C@@H](C)C(=O)N[C@@H](CCC(N)=O)C(=O)N[C@@H](CCCCN)C(=O)N1CCC[C@H]1C(=O)N[C@@H](CO)C(=O)N[C@@H](CO)C(=O)NCC(=O)N[C@@H](C)C(=O)N1CCC[C@H]1C(=O)N1CCC[C@H]1C(=O)N1CCC[C@H]1C(=O)N[C@@H](CO)C(=O)O)C(C)C)[C@@H](C)CC) [AT682] | 89 | 13.6 | 7.9
EGTFISDYSI[Aib][Nle]DKIK([AEEA-AEEA-γGlu-C18 diacid])QQDFVEWLLAQKPSSGAPPPS-OH [AT686] | 82 | 3.42 | 8.5
EGTFISEYSI[Aib][Nle]EKIK(C16 diacid)QQEFVEWLLAQKPSSGAPPPS-OH (N-terminus assumed; SMILES CCCC[C@H](NC(=O)C(C)(C)NC(=O)[C@@H](NC(=O)[C@H](CO)NC(=O)[C@H](Cc1ccc(O)cc1)NC(=O)[C@H](CCC(=O)O)NC(=O)[C@H](CO)NC(=O)[C@@H](NC(=O)[C@H](Cc1ccccc1)NC(=O)[C@@H](NC(=O)CNC(=O)[C@@H](N)CCC(=O)O)[C@@H](C)O)[C@@H](C)CC)[C@@H](C)CC)C(=O)N[C@@H](CCC(=O)O)C(=O)N[C@@H](CCCCN)C(=O)N[C@H](C(=O)N[C@@H](CCCCNC(=O)CCCCCCCCCCCCCCC(=O)O)C(=O)N[C@@H](CCC(N)=O)C(=O)N[C@@H](CCC(N)=O)C(=O)N[C@@H](CCC(=O)O)C(=O)N[C@@H](Cc1ccccc1)C(=O)N[C@H](C(=O)N[C@@H](CCC(=O)O)C(=O)N[C@@H](Cc1c[nH]c2ccccc12)C(=O)N[C@@H](CC(C)C)C(=O)N[C@@H](CC(C)C)C(=O)N[C@@H](C)C(=O)N[C@@H](CCC(N)=O)C(=O)N[C@@H](CCCCN)C(=O)N1CCC[C@H]1C(=O)N[C@@H](CO)C(=O)N[C@@H](CO)C(=O)NCC(=O)N[C@@H](C)C(=O)N1CCC[C@H]1C(=O)N1CCC[C@H]1C(=O)N1CCC[C@H]1C(=O)N[C@@H](CO)C(=O)O)C(C)C)[C@@H](C)CC) [AT674] | 93 | 0.447 | 9.4
EGTFISEYSIALEKIK([AEEA-AEEA-γGlu-C18 diacid])QQEFVEWLLAQKPSSGAPPPS-OH (N-terminus assumed; SMILES CC[C@H](C)[C@H](NC(=O)[C@H](CO)NC(=O)[C@H](Cc1ccc(O)cc1)NC(=O)[C@H](CCC(=O)O)NC(=O)[C@H](CO)NC(=O)[C@@H](NC(=O)[C@H](Cc1ccccc1)NC(=O)[C@@H](NC(=O)CNC(=O)[C@@H](N)CCC(=O)O)[C@@H](C)O)[C@@H](C)CC)C(=O)N[C@@H](C)C(=O)N[C@@H](CC(C)C)C(=O)N[C@@H](CCC(=O)O)C(=O)N[C@@H](CCCCN)C(=O)N[C@H](C(=O)N[C@@H](CCCCNC(=O)COCCOCCNC(=O)COCCOCCNC(=O)CC[C@H](NC(=O)CCCCCCCCCCCCCCCCC(=O)O)C(=O)O)C(=O)N[C@@H](CCC(N)=O)C(=O)N[C@@H](CCC(N)=O)C(=O)N[C@@H](CCC(=O)O)C(=O)N[C@@H](Cc1ccccc1)C(=O)N[C@H](C(=O)N[C@@H](CCC(=O)O)C(=O)N[C@@H](Cc1c[nH]c2ccccc12)C(=O)N[C@@H](CC(C)C)C(=O)N[C@@H](CC(C)C)C(=O)N[C@@H](C)C(=O)N[C@@H](CCC(N)=O)C(=O)N[C@@H](CCCCN)C(=O)N1CCC[C@H]1C(=O)N[C@@H](CO)C(=O)N[C@@H](CO)C(=O)NCC(=O)N[C@@H](C)C(=O)N1CCC[C@H]1C(=O)N1CCC[C@H]1C(=O)N1CCC[C@H]1C(=O)N[C@@H](CO)C(=O)O)C(C)C)[C@@H](C)CC) [AT693] | 96 | 1.26 | 8.9
EGTFISDYSIA[Nle]DKIK([AEEA-AEEA-γGlu-C18 diacid])QQDFVEWLLAQKPSSGAPPPS-OH [AT683] | 93 | 15.9 | 7.8
Glutaryl-GTFISDYSIAMDKIK(C16 diacid)QQDFVNWLLAQKPSSGAPPPS-OH (SMILES CC[C@H](C)[C@H](NC(=O)[C@H](CO)NC(=O)[C@H](Cc1ccc(O)cc1)NC(=O)[C@H](CC(=O)O)NC(=O)[C@H](CO)NC(=O)[C@@H](NC(=O)[C@H](Cc1ccccc1)NC(=O)[C@@H](NC(=O)CNC(=O)CCCC(=O)O)[C@@H](C)O)[C@@H](C)CC)C(=O)N[C@@H](C)C(=O)N[C@@H](CCSC)C(=O)N[C@@H](CC(=O)O)C(=O)N[C@@H](CCCCN)C(=O)N[C@H](C(=O)N[C@@H](CCCCNC(=O)CCCCCCCCCCCCCCC(=O)O)C(=O)N[C@@H](CCC(N)=O)C(=O)N[C@@H](CCC(N)=O)C(=O)N[C@@H](CC(=O)O)C(=O)N[C@@H](Cc1ccccc1)C(=O)N[C@H](C(=O)N[C@@H](CC(N)=O)C(=O)N[C@@H](Cc1c[nH]c2ccccc12)C(=O)N[C@@H](CC(C)C)C(=O)N[C@@H](CC(C)C)C(=O)N[C@@H](C)C(=O)N[C@@H](CCC(N)=O)C(=O)N[C@@H](CCCCN)C(=O)N1CCC[C@H]1C(=O)N[C@@H](CO)C(=O)N[C@@H](CO)C(=O)NCC(=O)N[C@@H](C)C(=O)N1CCC[C@H]1C(=O)N1CCC[C@H]1C(=O)N1CCC[C@H]1C(=O)N[C@@H](CO)C(=O)O)C(C)C)[C@@H](C)CC) [AT677] | 93 | 0.447 | 9.4
EGTFISDYSI[Aib]LDKIK([AEEA-AEEA-γGlu-C18 diacid])QQDFVEWLLAQKPSSGAPPPS-OH [AT685] | 83 | 2 | 8.7
